Laboratory results taken from article PMC6078384 (Journal of structural biology, 2013).

Molecular target: the molecule itself
Assay: SEC

B1: ΔN71–AtTHIC (N-terminally truncated Arabidopsis thaliana THIC, HMP-P synthase, lacking the first 71 amino acids) (enzyme)
chain: not shown
With B1 the “stoichiometry N” value was 2.
